Consider 19 sequences from the DeepSol protein solubility set.

A short description of this data set: soluble on expression in E. coli; label from the status in PepcDB or PDB records.
“MGSDKIHHHHHHMSTAKTLTLEMHLGDLMIGELSFDATADTFAVHYTKDWQQSGFPLSPTIPLDGTGTSNQISMFLVNLLPENKGLDYLIESLGVSKGNTFALIRAIGLDTAGAIAFVPKGALLPETQLRPIKAEEVIQRIEDPTMWPMEIWDGKPRLSVAGVQPKLNLFYNGKEFAFAEGTLSSTHIVKFEKYHHLVINEFITMRLAKVLGMNVANVDIVHFGRYKALCVERFDRRNIPGEQRVLRRHIVDSCQALGFSVSKKYERNFGTGRDVKDIREGVSFNRLFSLAAKCRNPVAAKQDMLQWALFNLLTGNADAHGKNYSFFMTPSGMEPTPWYDLVSVDMYEDFEQQLAMAIDDEFDPNSIYAYQLAAFMDGLGLPRNLLISNLTRIARRIPQAIAEVILMLPPLDEDEASFVAHYKTQLLARCERYLGFVDEVRDVEV”: the “soluble on expression in E. coli” value was “not soluble”.

For “MGSDKIHHHHHHMKVKSVSEILIYPPDRIVGDLWIVRNWVTKRNYKVSSPTLAILLYCKIPHTVGDILDFFYEKYGIKNELIHLGLKKLMATDLLLEVKQEMDGSNEVFGLEFDNWYKHNWYMALLYHLVSYDYPFIEDYVAKQRMINYSSQEIDSNRYKEYNSQVSYDIPKATEVKIRETNTSKQKCVNFADLLTMASLGYTRVGSLRVYWNGDPLILRTSPSGGSRHPTETYIVAINVEGLESGWYHISVKDSKLEQIKIGGTDPDDLRLLFPTTYVRPDFHVDLILIFTSIFERNMYRYREPRTFRTIHMDVGHLAATTEIICEKLGYKYLVQYSANDEGIEKFLGLSPLKEGYMASMAIGN”, the “soluble on expression in E. coli” value is “not soluble”.

With “MARRILVVEAEAPIREMVCFVLEQNGFQPVEAEDYDSAVNQLNEPWPDLILLEWMLPGGSGIQFIKHLKRESMTRDIPVVMLTARGEEEDRVRGLETGADDYITKPFSPKELVARIKAVMRRISPMA”, the “soluble on expression in E. coli” value is “soluble”.

For “MVQQSEVRQMKHSVSTLNQEMTQLNQETVKITQQNRLNAKSSSGVYLLPGAKTPARLESQIGTLRMSLVNITPDADGTTLTLRIQGESNDPLPAFSGTVEYGQIQGTIDNFQEINVQNQLINAPASVLAPSDVDIPLQLKGISVDQLGFVRIHDIQPVMQLEHHHHHH”, the “soluble on expression in E. coli” value is “soluble”.

As for “MTNAALDDKTIVRDYFNSTGFDRWRRIYGDGQVNFVQKDIRVGHQQTVDSVVAWLVADGNLPGLLVCDAGCGVGSLSIPLAQAGALVYGSDISEKMVGEAQQKAQEVLAYGNQPTFMTQDLAQLGGKYDTVICLDVLIHYPTEEASAMISHLASLADRRLILSFAPKTLGLTVLKKIGGLFPGPSKTTRAYQHKEADIRKILGDNGFSIARTGMTSTRFYYSRILEAVRSLEHHHHHH”, the “soluble on expression in E. coli” value is listed as “not soluble”.

As to “MEVPSLFTNFFAVNNPDSPPARQKTKLRELEHRFWQEHLPGDDDDHSTAISSLAIVTGLTKAQVSRISIAFATLADLPELKALQQKLYHLDLSRLITISNELAGINPDNLAGADAILTEYLTATSPNQILPSPASIGRKIKEIRDLLDDARATGSRGTQDDSSFGVTFSPDGTAEIGASVDAVDGHIINDAVTQHAKKNDLTYGEAFSDILRNNIQVKVVLNLYTAKDLANAPVWASGIGWLDAKTGTFWSEKANKEQDMDAAAKISTDKHDPPPALRDALIGRDGTCRFPGCSVPALKTQADHRIPYEEGGETCLGGIGCLCQHHHNMKTDGRVTYLLDPFSGIIVWLMGDGTWAVSEPNGPLNPKNARWAQTVAQHRARHHKRWVKEDAKLEHHHHHH”, the “soluble on expression in E. coli” value is reported as “not soluble”.

For the sequence “MSLVQWISPLDNSIVIASKVKILRNIKGIKFTKLLNEEEFNDLLSMVLGRLKEIDILDKCYVVKLKDGEEKIIDYYKENFGLIKYFENKDNLIFIMNKNGEFNILLNEEEHIGIECTNSGLSLREVYSKVDNLDDLIEEKIHYSFDSELGYLTSNIKNLGTALRAKVFIHLPLLSSNNLIRIIKNALKEEGITLKSIYNSGNKDVGNIYEVSNIKTLGMSEKDILDSLISITNKLILREKNQRDNLSKDEYIELKDDILRSLGVLRNTYSIDREGHHHHHH”, the “soluble on expression in E. coli” value is given as “not soluble”.

As for “GMSSKQHCVKLNDGHLIPALGFGTYKPKEVPKSKSLEAACLALDVGYRHVDTAYAYQVEEEIGQAIQSKIKAGVVKREDLFVTTKLWCTCFRPELVKPALEKSLKKLQLDYVDLYIMHYPVPMKSGDNDFPVNEQGKSLLDTVDFCDTWERLEECKDAGLVKSIGVSNFNHRQLERILNKPGLKYKPVCNQVECHLYLNQRKLLDYCESKDIVLVAYGALGTQRYKEWVDQNSPVLLNDPVLCDVAKKNKRSPALIALRYLIQRGIVPLAQSFKENEMRENLQVFGFQLSPEDMKTLDGLNKNFRYLPAEFLVDHPEYPFVEEY”, the “soluble on expression in E. coli” value is on record as “soluble”.

With “MGHHHHHHSHASELQQHVYDRAHLLSKAEIGKLESLSAKLGAKRDTDFIIITTKSTNGEDIADYTGDFYDRYGKGSTAILTIDMTNREVFIAGFKKAEQYLDNSRLNSIRNTISSDLSNENYFEAFETYIQLSYKDMGIKPGVNPDNI”, the “soluble on expression in E. coli” value was “not soluble”.

For the sequence “MFNIMLVKFVVIFALILASCRVEADNTSVLPEGFVDAAQRSTHTNNWAVLVDASRFWFNYRHVANVLSIYRSVKRLGIPDSQIILMIADDMACNARNPRPGQVYNNANQHINVYGDDVEVDYRGYEVTVENFVRLLTGRTQNGTARSKKLLSDAGSNVLIYLTGHGGDGFLKFQDSEEITSQELADGIQQMWEKKRYNELFFMVDTCQAASLYEKFTSPNVLAVASSLVGEDSLSHHVDPSIGVYMIDRYTYYALEFLEKVQPFSKRTIGEFLQVCPKRVCISTVGVRKDLYPRDPHKVPITDFFGAIRPTRVSTDRINVTLANEELEHHHHHH”, the “soluble on expression in E. coli” value is on record as “not soluble”.

Consider “MGSDKIHHHHHHMIEFDNLTYLHGKPQGTGLLKANPEDFVVVEDLGFEPDGEGEHILVRILKNGCNTRFVADALAKFLKIHAREVSFAGQKDKHAVTEQWLCARVPGKEMPDLSAFQLEGCQVLEYARHKRKLRLGALKGNAFTLVLREVSNRDDVEQRLIDICVKGVPNYFGAQRFGIGGSNLQGAQRWAQTNTPVRDRNKRSFWLSAARSALFNQIVAERLKKADVNQVVDGDALQLAGRGSWFVATTEELAELQRRVNDKELMITAALPGSGEWGTQREALAFEQAAVAAETELQALLVREKVEAARRAMLLYPQQLSWNWWDDVTVEIRFWLPAGSFATSVVRELINTTGDYAHIAE”, for which the “soluble on expression in E. coli” value is “not soluble”.

With “MTLEQQDRTEQQLAALNAQVRQDLCYLNYPAANWSKPVSTSDGQLVSDVVIIGGGMCGLVAWHALTRAGIANIRIVDRAAKGEEGPWVTYARMETLRSPKNLLGPALGMASLTFRAWYTARFGKEAWEELFRIPRPMWMEYLSWYRQVMEIPVENNIHVTRVIPRLDGLLELEIEGGKADPIITRKLVMATGRDGLGEPTIPDFVKGMPRHVSWAHSADMIDFQRLKGKRVVVIGVGASAVDNAAEALEQGAGEVRLLARRKTMPTINKLMGIGSYGVTAGFAKIDPEWRWRLMDYSVKQQTPAPHNSTLRVSRHSNAYFHFDCGIQSMKEEGGEVVITTINGRVFRTDFVILGTGFSIDPVSRPELEMFNGQIACWEDRYTPPAGEENPGLGRFPWLQDDFSFTEKEPGAAPWLQHIHCFNYGSSVSLGKVSGDIPAISEGALWLARGIAASLFIADIDHHWEALKAYEKPELDGSEWTDADADPSMQKTALEHHHHHH”, the “soluble on expression in E. coli” value is recorded as “soluble”.

Take “MAHHHHHHMHLLSFLSFIIWFIHCTAKRHEYSIKKYFLNSHNFCKIKPDPFRKDTLKKRLYSSDGIKDEIIIGTRDSPLALKQSEKVRKKIMSYFKKMNKNINVTFKYIKTTGDNILDSKSVGLYGGKGIFTKELDEQLINGNVDLCVHSLKDVPILLPNNIELSCFLKRDTINDAFLSIKYKSINDMNTVKSVSKTEDIHHINKKDSDHNNDTLCTIGTSSLRRRSQIKNRYKNIYVNNIRGNINTRIEKLYNGEVDALIIAMCGIERLIKKANLKHLLKNKEQKNICQPFLLKCNNKKCIDLCHVNIQKLNKNLIYPALGQGIIAVTSHKKNYFISSLLKNINNKKSEMMAQIERSFLYHIDGNCMMPIGGYTNMRNEDIYLHVIINDIHGYNKYQVTQKDTLYNYKEIGPNAAIKMKEIIGTEQFNKIKAEAELHLLNNK”: the “soluble on expression in E. coli” value is listed as “not soluble”.

For the sequence “MKIQFNRFLTRSLLTAALTGAASMAAAATMEVYKSPTCGCCAKWVDHMRDNGFTVNIHDIGNDEARAEAGILPELGSCHTALVNGYAIEGHVPADDIKQLLKERPRAVGLSAPGMPHGSPGMETGRVDSYNVLLIRKPGDKRSATEIYNRYGPGKSGAAEKTSENSTTDSVLRLK”, the “soluble on expression in E. coli” value is “not soluble”.

“MSLQLRLALNQIDSTVGDIAGNAEAILRWTRHSAEQGAHLVAFPEMALTGYPVEDLALRSSFVEASRTALRELAARLAEEGFGELPVLVGYLDRSESAQPKYGQPAGAPRNAAAVLHRGRVALTFAKHHLPNYGVFDEFRYFVPGDTMPIVRLHGVDIALAICEDLWQDGGRVPAARSAGAGLLLSVNASPYERDKDDTRLELVRKRAQEAGCTTAYLAMIGGQDELVFDGDSIVVDRDGEVVARAPQFSEGCVVLDLDLPAAEAEPPTGVVDDGLRIDRLVISEEPLPAYEAELAGGYADRLDADEEVYSALVVGLRAYVAKNGFRSVLIGLSGGIDSALVAAIACDALGAQNVYGVSMPSKYSSDHSKGDAAELARRTGLNFRTVSIEPMFDAYMASLGLTGLAEENLQSRLRGTTLMAISNQEGHIVLAPGNKSELAVGYSTLYGDSVGAYGPIKDVYKTSIFRLAEWRNRAAAERGQTPPIPEASITKPPSAELRPGQVDTDSLPDYPVLDAILELYVDRDTGADAIVAAGYDRELVVKTLRMVDTAEYKRRQYPPGTKISAKGFGKDRRLPITNRWREGHHHHHH”: the “soluble on expression in E. coli” value is listed as “soluble”.

For the sequence “MGSDKIHHHHHHMTKLQLKYRELKIISVIAASENISHAATVLGIAQANVSKYLADFESKVGLKVFDRTTRQLMLTPFGTALLPYINDMLDRNEQLNNFIADYKHEKRGRVTIYAPTGIITYLSKHVIDKIKDIGDITLSLKTCNLERNAFYEGVEFPDDCDVLISYAPPKDESLVASFITQYAVTAYASQRYLEKHPISRPDELEHHSCILIDSMMIDDANIWRFNVAGSKEVRDYRVKGNYVCDNTQSALELARNHLGIVFAPDKSVQSDLQDGTLVPCFQQPYEWWLDLVAIFRKREYQPWRVQYVLDEMLREIRHQLAQSQQLRPEQAAESED”, the “soluble on expression in E. coli” value is given as “not soluble”.

For the sequence “MAHHHHHHMGFLDGKRILLTGLLSNRSIAYGIAKACKREGAELAFTYVGDRFKDRITEFAAEFGSELVFPCDVADDAQIDALFASLKTHWDSLDGLVHSIGFAPREAIAGDFLDGLTRENFRIAHDISAYSFPALAKAALPMLSDDASLLTLSYLGAERAIPNYNTMGLAKAALEASVRYLAVSLGAKGVRVNAISAGPIKTLAASGIKSFGKILDFVESNSPLKRNVTIEQVGNAGAFLLSDLASGVTAEVMHVDSGFNAVVGGMAGLEE”, the “soluble on expression in E. coli” value was “soluble”.

For the sequence “DLYFQGGSGMQCEEKLEVFENGFKDEKFNVEVKFYGNDARKVLLAMIYELYLPEYGREYVYPFECAKEFWNIYLEGEEIQDEEFQLKPIKFTSEQVIKKLQEEIKKIKPPLEIKIEEAKIYKTKEGYLAVGNYFILDPRGRLFIFNKPSIANKILKYIWKW”, the “soluble on expression in E. coli” value was “soluble”.

As for “AHHHHHHGSKTFLTEQQIKVLMLRAKGYKQSEIAKILGTSRANVSILEKRAMEKIEKARNTLLLWEQINSKVIVEIKAGEDIFSIPEKFFKKADKVGVKVPYSTAEIITFLVEHAPVEDRLAKRDFVLFLDSKNKLRIGDCLVIEEIKED”, the “soluble on expression in E. coli” value is “soluble”.
